T1: CR8 bHLH domain (BHLHE40/DEC1) (human, UniProt O14503 SEQ:52-107)
T1 chain: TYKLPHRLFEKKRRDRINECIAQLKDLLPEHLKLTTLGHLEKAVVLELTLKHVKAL

T2: daughterless (da) bHLH domain (Drosophila melanogaster, UniProt P11420 P11420:554-607)
T2 sequence: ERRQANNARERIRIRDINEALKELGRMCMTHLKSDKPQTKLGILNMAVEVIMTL


Assays:
[1] = target: T1, CR8 bHLH domain (BHLHE40/DEC1); experiment: EMSA; same buffer; conditions: tags: N-terminal His tag (pRSET-A, Xpress System), 16.6 kD with tag; chain copies: 2 (homodimer, stated); label: 32P 5' end; 5' GATC overhangs
Description: (§1) The oligonucleotide probes used for the electrophoretic mobility shift assay (EMSA) are as follows: the Class A site used was the CACCTG hexamer (CAGGTG for the opposite strand) from the T5 promoter region of the Drosophila AS-C (Villares, R. et al. (1987) *Cell* 550:415–424) (5'-[…]-3' (SEQ ID NO:17) and 5'-[…]-3' (SEQ ID NO:18) for the opposite strand), the Class B site was the CACGTG hexamer from the USF binding site in the adenovirus major late promoter (Gregor, P. D. et al. (1990) *Genes & Dev.* 4:1730–1740) (5'-[…]-3' (SEQ ID NO:19) and 5'-[…]-3') (SEQ ID NO:20), the Class C site was the CACGCG hexamer (CGCGTG for the opposite strand) from the AS-C T5 promoter (5'-[…]-3' (SEQ ID NO:21) and 5'-[…]-3') (SEQ ID NO:22), and the N-box (CACNAG) was the double hexamer sequence from the Enhancer of split [E(spl)] m8 promoter (Klimbt, C. et al. (1989) *EMBO J.* 8:203–210) (5'-[…]-3' (SEQ ID NO:23) and 5'-[…]-3' (SEQ ID NO:24). One strand of the oligonucleotide was labeled with [g-32P]ATP by T4 polynucleotide kinase, hybridized with three times excess of the opposite strand, and purified using MERmaid oligonucleotide purification kit (BIO 101). […] Samples were analyzed on a 5% native polyacrylamide gel and visualized by autoradiography.

[2] = target: T2, daughterless (da) bHLH domain; experiment: EMSA; positive control; conditions: tags: supplied by Dr. Michael Caudy, Cornell University Medical College; label: 32P 5' end; 5' GATC overhangs
Description: as §1

[3] = target: T1, CR8 bHLH domain (BHLHE40/DEC1); experiment: EMSA; 20 mM Hepes pH 7.6, 50 mM KCl, 10 mM DTT, poly(dI-dC), room temperature; self-competition partial at 50-fold and complete at 500-fold excess; conditions: tags: N-terminal His tag (pRSET-A, Xpress System), 16.6 kD with tag; chain copies: 2 (homodimer, stated); label: 32P 5' end; 5' GATC overhangs
Protocol: One strand of the oligonucleotide was labeled with [g-32P]ATP by T4 polynucleotide kinase, hybridized with three times excess of the opposite strand, and purified using MERmaid oligonucleotide purification kit (BIO 101). 150 ng of the protein was allowed to bind to 50,000 cpm (equivalent to 0.5 ng in a typical experiment) of the labeled probe for 15 min at room temperature in 20 mM Hepes, pH 7.6, 50 mM KCl, 10 mM DTT, 5% glycerol, 0.5 mM EDTA and 0.3 mg/ml BSA. Two microgram of poly (dI-dC) was added to each […] reaction as on-specific DNA. Samples were analyzed on a 5% native polyacrylamide gel and visualized by autoradiography.
To examine the relative binding affinity, a large excess of non-labeled oligonucleotide was added to the reaction as competitor. […] 0.5 ng of the radiolabeled Class B probe was incubated with CR8 bHLH in the absence (lane 1) or the presence (lanes 2 to 7) of either 25 ng (50-fold excess; lanes 2, 4 and 6) and 250 ng (500-fold excess; lanes 3, 5 and 7) of unlabeled competitors. […] Thus, since all these experiments were done in the absence of other HLH proteins, it appears that CR8 bHLH bound to the Class B sequence as a homodimer with the highest affinity.

Binder	binding result [1]	binding result [2]	binding result [3]
Class C probe (AS-C T5 promoter) (dsDNA) DNA 1: GATCGGCAGCCGGCACGCGACAGGGCC DNA 2: GATCGGCCCTGTCGCGTGCCGGCTGCC	binds		
Class A E-box probe (AS-C T5 promoter) (dsDNA) DNA 1: GATCGTAGTCACGCAGGTGGGATCCCTA DNA 2: GATCTAGGGATCCCACCTGCGTGACTAC	no binding	binds	
Class B E-box probe (USF site, adenovirus major late promoter) (dsDNA) DNA 1: GATCGGTGTAGGCCACGTGACCGGGTGT DNA 2: GATCACACCCGGTCACGTGGCCTACACC			binds
